# B1: TPR t1 (parent)
# chain: GACCAAUCUGCCCUCAGAGCUCGAGAACAUCUUCGGAUGCAGAGGAGGCAGGCUUCGGUGGCGCGAUAGCGCCAACGUCCUCAACCUCCAAUGCAUCCCACCACAUGAUGAUGCCUGAAGAGCCUUGGUUUUUUG
# Variants of: B1
# Assay: polymerase ribozyme fitness, log enrichment relative to wild type (log ratio); higher = more active; in vitro selection for triplet polymerase activity
# How it was run: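 PCR was used to build mutant libraries for each subunit of a heterodimeric triplet polymerase ribozyme, which were then transcribed. A single in vitro selection round, in triplicate, used a frozen incubation at −7 °C and recovered extended constructs by gel excision, streptavidin beads and RT-PCR. Fitness is the logarithm of genotype enrichment relative to wild-type enrichment, averaged over replicates with inverse-variance weights. The logarithm is base 2, and after Illumina sequencing only genotypes with ≥10 input reads and ≥1 read per output were kept.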
row,Variant,polymerase ribozyme fitness (log ratio)
1,GACGAAUCUGCCCUCAGAGCUCGAGAACAUCUUCGGAUGCAGAGGAGGCAGGCUUCGGUGACGCGAUAGCGCCAACGUCCUCAACCGCCAAUGCAUCCCACCACAUGAUGAUGCCUGAAGAGCCUUGGUUUUUUG,-2.28
2,GACGAAUCUGCCCUCAGAGCUCGAGAACAUCCUCGGAUGCAGAGUAGGCAGGCUUCGGUGGCGCGAUAGCGCCAACGUCCUCAACCUCCAAUGCAUCCCACCACAUGAUGAUGCCUGAAGAGCCUUGGUUUUUUG,-3.28
3,GACGAAUCCGCCCUCAGAGCUCGAGAACAUCUUCGGAUGCAGAGGAGGCAGGCUUCAGUGGCCCGAUAGCGCCAACGUACUCACCCUCUAAUGCAUCCCACCACAUGAUGAUGCCUGAAGAGCCUUGGUUUUUUG,-4.8
4,GACGAAUCUGCCCUCAGAGCUCGAGAACAUCAUCGGAUGCAGAGGAGGCAGGCUUCGGUGGCGCGAUAGCUCCAACGUCCUCAACCUCCAAUGCAUCCCACCACAUGAUGAUGCCUGAAGCGCCUUGGAUUUUUG,-4.53
5,GACGAAUCUGCCCUCAGAGCUCGAGAACAUCUUCGGAUGCAGAGGAGGCAGGCAUCGGUCGCGCGAUAGCGCCAACGUCCUCAACCUCCAAUGCAUCCCACCACAUGAUGAUGCCUGAAGAGCCUUGGUUUUUUG,-1.88
6,GACUAAUCUGCCCUCCGAGCUCGAGAACAUCUUCGGAUGCAGAGGAGGCAGGCUUCGGUGGCGUGAUAGCGCCAACGUCCUCAACCUCCAAUGCAUCCCACCACAUGAUGAUGCCUGAAGAGCCUUGGUUUUUUG,-4.16
7,GACGAAUCUGCCCUCAGAGCUCGAGAACAUCUUAGGAUGCAGAGGAGGCAGGCUUCGGUGGCGCGAUAGCGGCAACGUCCUCAACCUCCAAUGCAUCCCACCACAUGAUGAUGCCUGAAGAGCCUUGGUUUUUUG,-5.9
8,GACGAAUCUCCCCUCAGAGCUCGAGAACAUCUUCGGAUGCAGAGGAGGCAGGCUUCGGUGGCGCGAUAGCGCCAACGUCCUCAACCUCCAAUGCAUCCCACCACAUGAUGAUGCUUGAAGAGCCUUGGUUUUUUG,-3.25
9,GACGAAUCUGCCCUCAGAGCUCGAGAACAUCUUCGGAUGCAGAGGAGGCAGGCUUCGGUGUCGCGAUAGCGCCAACGUCCUCAACCUCCAAUGCAUCCCACCACAUGAUGAUGCCUGAAGAGCCUUGGUUUUUUG,-1
10,GACGAAUCUGCCCUCAGAGCUCGAGAACAUCUUCGGAUGCAGAGGAGGCAGGCUUCGGUGGCGCGAUAGCGCCAACGUCUUCAACCUCCAAUGCAUCCCACCACAUGAUGAUGCCUGAAGAGCCUUGGUUUUUUG,-1.83
11,GACUAAUCUGCCCUCGGAGCUCGAGAACAUCUUCGGAUGCAGAGGAGGUAGGCUUCGGUGGCGCGAUAUCGCCAACGUCCUCAACCUCCAAUGCAUCCCACCACAUGAUGAUUCCUGAAGAGCCUUGGUUUUUUG,-2.65
12,GACGAAUCUGCCCUCAGAGCUCGAGAACAUCUUCGGAUGCAGAGGAGGCAGGCUUCGGUGGCGCGAUAGCGCCAACGUCCUCAACCUCCAAUGCAUCCCACCACAUGAUGAUGCCUGAAGAGCCUUGGUUUUUUU,-2.5
13,GACGAAUCUGCCCUUAGAGCUCGAGAACAUCUUCGGAUGCAGAGGAGGCAGGCUUCGGUGGCGCGAUAGCGCCAACGUCCUCAACCUCCAAUGCAACCCACCACAUGAUGAUGCCUGAAGAGCCUUCGUUUUUUG,-2.26
14,GACGAAUCUGCCCUCAGAGCUCGAGAACAUCUUCGGAUGCAGAGGAGGCAUGCUUCGGUGGCGCGAUAGCGCCAACGUCCUCAACCUCCAAUGCAUCCCACCACAUGAUGAUGCCUGAAUAGCCUUGGUUUUUUG,-4.56
15,GACUUAUCUGCCCUCAGAGCUCGAGAACAUGUUCGGAUGCAGAGUAGGCAGGCAUCGGUGGCGCGAUUGCGCCAACGUCCUCAACCUCCAAUGCAUCCCACCACAUGAUAAUGUCUGAAGAGCCUUGGUUUUUUG,-6.24
16,GACGAAUCUGCCCUCAGAGCUCGAGAACAUCUUCGGAUGCAGAGAAGGCAGGCUUCGGUGGCGCGAUAGCGCCAACGUCCUCAACCUCCAAUGCAUCCCACCACAUGAUGAUGCCUGAAGAGCCUUGGUUUUUUG,-2.31
17,GACUAAUCUGCCCUCAGCGCUCGAGAACGUCUUCGGAUGCAGAGGAGGCAGGCUUAGGUGGCGCGAUAGCGCCAACGUCCUCAACCUCCAAUGCAUCCCACCACAUGAUGAUGCCUGAAGAGCCUUGGUUUUUUG,-4.17
18,GACUAGUCUGCCGUCAGAGCUCGAGAACAUCUUCGGAUGCAGAGGAGGCAGGCUUCGGUGGCGCGAUAGCGCCAACGUCCUCGACCUCCAAUGCAUCCCACCACAUGAUGAUGCCUGAAGAGCCUUGGUUUUUUG,-1.95
19,GACGAAUCUGCCCUUAGAGCUCGAGAACAUCUUCGGAUGCAGAGGAGGCAGGCUUCGGUGGCGCGAUAGCGCCAACGUCCUCAACCUCCAAUGCAUCCCACCACAUGAUGAUGCCUGAAGAGCCUUGGUUUUUUG,-2.66
20,GACGAAUCAGCCCUCAGAGCUCGAGAACAUCUUCGGAUGCAGAGGAGGCAGGCUUCGGUGGCGCGAUAGCGCCAACGUCCUCAACCUCCAAUGCAUCCCACCACAUGAUGAGGCCUUAAGAGCCUUGGUUUUUUG,-2.18
21,GACUAGUCUGCCCUCAGAGCUCGAGAACAUCUUCGGAUACAGAGGAGGCAGGCUUCGGUGGCGCGAUAGCGACAACGUCCUCAAACUCCGAUGCAUCCCACCACAUGAUGAUGUCUGAAGAGCCUUGGUUUUUUG,-3.29

# Source: the RNAGym collection of RNA variant scans (doi:10.1073/pnas.2313332121)
